Where “and” joins values, the source holds several entries; their conditions need not be identical. Equal entries are not always repeated. Where two headings read alike, the source gives them in different places. One block for each substance: values may come before it.
Experiments:
[1] = biological target: GluA2S, GluA2 ATD with complex glycosylation (293T); experiment: AUC
[2] = biological target: GluA2S, GluA2 ATD with complex glycosylation (293T); experiment: AUC; remark: listed apart in the source
GluA2S-FAM = experiment: AUC
[3] = biological target: EndoH-digested, FAM-labeled GluA2S; experiment: AUC
[4] = biological target: EndoH-digested, FAM-labeled GluA2S; experiment: AUC; remark: listed apart in the source
[5] = biological target: EndoH-digested, FAM-labeled GluA2S; experiment: AUC; remark: listed apart in the source
EndoH-digested GluA2S [6] = experiment: AUC
EndoH-digested GluA2S [7] = experiment: AUC; remark: listed apart in the source
EndoH-digested GluA2S [8] = experiment: AUC; remark: listed apart in the source
EndoH-digested GluA2S [9] = experiment: AUC; remark: listed apart in the source
EndoH-digested GluA2S [10] = experiment: AUC; remark: listed apart in the source
[11] = biological target: GluA3 (AMPA receptor amino-terminal domain); experiment: AUC
GluA2 ATD, GnTI− = experiment: AUC
GluA2L = experiment: AUC
[12] = biological target: EndoH-DyLight (GluA2 ATD, EndoH-digested, DyLight-labeled); experiment: fluorescence polarisation

EndoH-digested GluA2S, sequence (P19491 22-883): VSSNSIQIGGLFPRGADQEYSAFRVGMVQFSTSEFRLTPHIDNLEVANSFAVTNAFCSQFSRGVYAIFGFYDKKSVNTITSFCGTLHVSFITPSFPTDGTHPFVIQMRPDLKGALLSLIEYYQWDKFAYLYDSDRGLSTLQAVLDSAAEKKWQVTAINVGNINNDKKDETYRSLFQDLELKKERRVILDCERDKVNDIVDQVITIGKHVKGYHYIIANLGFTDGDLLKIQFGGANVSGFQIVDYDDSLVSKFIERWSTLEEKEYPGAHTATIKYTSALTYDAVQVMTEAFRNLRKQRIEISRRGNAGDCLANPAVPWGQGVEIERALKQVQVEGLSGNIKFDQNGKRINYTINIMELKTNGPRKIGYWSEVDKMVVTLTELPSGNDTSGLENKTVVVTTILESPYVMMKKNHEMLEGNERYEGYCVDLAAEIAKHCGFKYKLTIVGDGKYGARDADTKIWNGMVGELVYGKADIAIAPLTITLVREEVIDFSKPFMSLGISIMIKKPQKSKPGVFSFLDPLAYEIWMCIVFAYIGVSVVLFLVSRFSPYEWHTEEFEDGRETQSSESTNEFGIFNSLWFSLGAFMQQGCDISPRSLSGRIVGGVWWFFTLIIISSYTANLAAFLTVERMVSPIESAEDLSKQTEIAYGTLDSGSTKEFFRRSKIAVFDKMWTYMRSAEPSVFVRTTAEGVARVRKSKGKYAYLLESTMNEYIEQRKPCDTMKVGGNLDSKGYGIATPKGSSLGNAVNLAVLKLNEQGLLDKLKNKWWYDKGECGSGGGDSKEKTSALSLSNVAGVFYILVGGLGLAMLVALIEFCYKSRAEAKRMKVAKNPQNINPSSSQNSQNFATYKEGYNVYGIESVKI
EndoH-digested, FAM-labeled GluA2S, sequence (P19491 22-883): as above
EndoH-DyLight (GluA2 ATD, EndoH-digested, DyLight-labeled), sequence (P19491 22-883): as above
GluA2S, GluA2 ATD with complex glycosylation (293T), sequence (P19491 22-883, one chain of several): as the sequence (P19491 22-883) above
GluA3 (AMPA receptor amino-terminal domain), sequence (P19492 23-888): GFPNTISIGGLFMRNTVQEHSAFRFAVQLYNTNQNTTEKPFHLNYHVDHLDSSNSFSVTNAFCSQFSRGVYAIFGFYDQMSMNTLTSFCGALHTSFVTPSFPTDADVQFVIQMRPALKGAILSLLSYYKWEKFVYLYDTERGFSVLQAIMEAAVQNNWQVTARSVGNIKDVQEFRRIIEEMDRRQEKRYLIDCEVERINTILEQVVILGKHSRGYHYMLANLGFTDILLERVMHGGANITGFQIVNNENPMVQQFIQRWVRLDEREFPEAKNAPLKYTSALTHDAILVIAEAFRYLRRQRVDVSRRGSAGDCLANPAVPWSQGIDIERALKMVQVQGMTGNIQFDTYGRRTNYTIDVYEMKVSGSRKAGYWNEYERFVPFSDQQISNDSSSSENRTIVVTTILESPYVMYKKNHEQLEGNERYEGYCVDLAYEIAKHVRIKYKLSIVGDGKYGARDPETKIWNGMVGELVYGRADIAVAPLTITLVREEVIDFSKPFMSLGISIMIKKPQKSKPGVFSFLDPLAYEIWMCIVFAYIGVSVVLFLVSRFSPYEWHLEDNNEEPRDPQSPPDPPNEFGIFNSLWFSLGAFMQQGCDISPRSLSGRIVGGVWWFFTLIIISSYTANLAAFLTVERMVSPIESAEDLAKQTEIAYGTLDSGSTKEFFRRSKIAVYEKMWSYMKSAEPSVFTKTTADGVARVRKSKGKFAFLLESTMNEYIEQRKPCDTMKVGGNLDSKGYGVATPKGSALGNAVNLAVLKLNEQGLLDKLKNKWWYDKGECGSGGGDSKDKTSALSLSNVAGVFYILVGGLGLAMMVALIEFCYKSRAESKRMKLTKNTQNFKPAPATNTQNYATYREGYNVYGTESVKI
GluA2L, sequence (P19491 22-883): as the sequence (P19491 22-883) above
GluA2 ATD, GnTI−, sequence (P19491 22-883): as above
GluA2S-FAM, sequence (P19491 22-883): as above

Substance: GluA2S, GluA2 ATD with complex glycosylation (293T) (domain or fragment)
- Kd [1]: 6 nM
- stoichiometry N [1]: 2
- Kd [2]: 8.3 nM

Substance: GluA2S-FAM (domain or fragment)
- Kd (GluA2S-FAM): 14.9 nM

Substance: EndoH-digested GluA2S (domain or fragment)
- Kd (EndoH-digested GluA2S [6]): 17 nM
- Kd (EndoH-digested GluA2S [7]): 160 nM and 284 nM
- stoichiometry N (EndoH-digested GluA2S [7]): 2
- Kd (EndoH-digested GluA2S [8]): 12 nM and 8.3 nM and 10 nM
- Kd (EndoH-digested GluA2S [9]): 12 nM
- Kd (EndoH-digested GluA2S [10]): 30 nM

Substance: GluA3 (AMPA receptor amino-terminal domain) (domain or fragment)
- Kd [11]: 5600 nM
- stoichiometry N [11]: 2

Substance: GluA2 ATD, GnTI− (domain or fragment)
- Kd (GluA2 ATD, GnTI−): 11 nM

Other lines, results leading:

- Kd [3]: 13 nM
- Kd [4]: 2.5 nM
- Kd [5]: 10 nM
Substance: EndoH-digested, FAM-labeled GluA2S (domain or fragment)

- Kd (GluA2L): 5.5 nM
Substance: GluA2L (domain or fragment)

- Kd [12]: 10.8 nM and 11.3 nM and 8.43 nM
Substance: EndoH-DyLight (GluA2 ATD, EndoH-digested, DyLight-labeled) (domain or fragment)

Source: PMC3664699
